Results published in patent publication US20220033512A1 (University of California, published 2022).

What was measured:
[1] = target: T1, human ENPP1, full length, over-expressed on HEK cells (human, UniProt P22413 1-925); test: flow cytometry (mean fluorescence intensity) on HEK cells over-expressing full length human ENPP1
T1 construct: whole, on cells
T1 sequence (looked up): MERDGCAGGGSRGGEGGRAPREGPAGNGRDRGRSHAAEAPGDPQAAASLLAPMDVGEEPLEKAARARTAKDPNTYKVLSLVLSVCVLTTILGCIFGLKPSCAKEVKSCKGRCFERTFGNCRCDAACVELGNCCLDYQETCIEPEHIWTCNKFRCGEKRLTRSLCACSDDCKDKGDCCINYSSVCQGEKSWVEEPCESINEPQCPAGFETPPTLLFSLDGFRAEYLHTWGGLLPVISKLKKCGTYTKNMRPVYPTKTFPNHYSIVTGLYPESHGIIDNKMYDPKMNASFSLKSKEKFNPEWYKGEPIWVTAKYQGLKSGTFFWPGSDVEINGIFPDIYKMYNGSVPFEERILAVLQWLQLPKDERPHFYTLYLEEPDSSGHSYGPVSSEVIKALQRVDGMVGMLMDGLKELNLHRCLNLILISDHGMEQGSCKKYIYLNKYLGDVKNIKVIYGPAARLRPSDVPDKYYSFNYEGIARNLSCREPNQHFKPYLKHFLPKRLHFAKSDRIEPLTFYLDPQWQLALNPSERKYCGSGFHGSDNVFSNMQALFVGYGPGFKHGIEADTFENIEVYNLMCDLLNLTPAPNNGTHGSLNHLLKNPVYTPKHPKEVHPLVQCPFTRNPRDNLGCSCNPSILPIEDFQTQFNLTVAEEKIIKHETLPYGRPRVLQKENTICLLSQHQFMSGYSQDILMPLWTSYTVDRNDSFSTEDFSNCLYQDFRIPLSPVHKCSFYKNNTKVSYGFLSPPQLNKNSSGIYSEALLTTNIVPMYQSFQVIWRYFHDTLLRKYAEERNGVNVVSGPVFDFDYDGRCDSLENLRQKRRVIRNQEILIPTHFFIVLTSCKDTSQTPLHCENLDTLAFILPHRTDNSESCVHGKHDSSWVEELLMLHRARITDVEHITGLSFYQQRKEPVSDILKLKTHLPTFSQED

[2] = target: T1, human ENPP1, full length, …; test: flow cytometry (mean fluorescence intensity) on HEK cells over-expressing full length ENPP1, varying mAb concentrations, fitted in Graph Pad Prism

B1: 12-J-4 ENPP1 monoclonal antibody (antibody, V domains shown)
VH: EVMLVESGGGLVKPGGSLKLSCVASGFTFSSYTMSWVRQTPEKRLEWVATISGGGGNTYYPDSVKGRFTISRDNAKNTLYLQMSSLRSEDTALYYCARRHYGSSPYAMDYWGQGTSVTVSS
VL: DIQMTQTTSSLSASLGDRVTISCRASQDISNYLNWYQQKPDGTVKLLIYHKTRLHSGVPSRFSGSGSGTDYSLTISNLEQEDIATYFCQQGNMLPWTFGGGTKLEIK
notes: The antibody is a recombinant IgG1kappa made in a CHO cell line, from a hybridoma raised against human recombinant ENPP1; Heavy chain about 48 kD, light chain about 24 kD; also called ENPP1 mAb; ENPP1mAb
[1]
  EC50 (read off the curve): ~4 nM
[2]
  Kd: 3.52 nM
